From patent US20030148958A1 (PROCTER AND GAMBLE, published 2003)
Ends that are not written are not given here.

T1: CRF2R
T1 sequence (Q13324 whole entry, species assumed, looked up): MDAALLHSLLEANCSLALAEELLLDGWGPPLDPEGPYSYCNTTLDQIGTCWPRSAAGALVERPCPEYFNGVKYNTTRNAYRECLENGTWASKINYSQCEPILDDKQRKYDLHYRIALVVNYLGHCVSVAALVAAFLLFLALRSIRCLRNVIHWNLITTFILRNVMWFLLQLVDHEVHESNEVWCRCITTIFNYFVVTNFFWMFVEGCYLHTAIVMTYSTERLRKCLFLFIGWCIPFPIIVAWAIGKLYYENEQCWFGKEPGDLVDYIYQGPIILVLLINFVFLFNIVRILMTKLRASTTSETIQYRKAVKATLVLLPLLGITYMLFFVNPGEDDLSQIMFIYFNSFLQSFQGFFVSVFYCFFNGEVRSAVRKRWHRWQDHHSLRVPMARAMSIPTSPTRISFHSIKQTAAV


Tests used:
CRF2R = target: T1, CRF2R; assay: cell-based or functional assay
CRF1R = assay: cell-based or functional assay
Wherever CRF1R Emax % is given: reference of the scale not given here.
Wherever CRF2R Emax % is given: reference of the scale not given here.

CRF2R EC50 (CRF2R) [nM]	CRF2R Emax % (CRF2R) [%]	CRF1R EC50 (CRF1R) [nM]	CRF1R Emax % (CRF1R) [%]	Binder
12.9	97.4	1000	85.7	ZGPPISIDLPFQLLRKVIEIEKQEKEKQQATTNARLLDRV (C-terminal amide) [SEQ ID NO 351]
4.75	89.9	230	92.2	ZGPPISIDLPLYLLRKMIEIEKQEKEKQQATTNARILARV (C-terminal amide) [SEQ ID NO 353]
25.1	100	1000	20	ZGPPISIDLPFQLLRKAIEIEKQEKEKQQATTNARLLDRV (C-terminal amide) [SEQ ID NO 363]
4.3	–	650	–	PSLSIDLPLLLLRTLLELEKTQSQRERAEQNAIIFASV-NH2 [SEQ ID NO 344]
5.56	100	99	100	ZGPPISIDLPFQLLRILIEIEKQEKEKQQAANNALLLAT (C-terminal amide) [SEQ ID NO 358]
8.48	–	1000	–	DNPSLSIDLPLLLLRTLLELEKTQSQRERAEQNAIIFASV-NH2 [SEQ ID NO 346]
22.4	–	1000	–	DNPSLSIDLPLLLLRTLLELEKTQSQRERAEQNAIIFASV-NH2 [SEQ ID NO 347]
83	–	1000	–	IVLSLDVPIGLLQILLEQARARAAREQATTNARILARVM-NH2 [SEQ ID NO 356]
6.48	100	1000	13.4	IVLSLDVPIGLLQILLEQARARAAREQATTNARILARV-NH2 [SEQ ID NO 354]
5.77	–	630	–	PSLSIDLPLLLLRTLLELEKTQSQRERAEQNAIIFASV-NH2 [SEQ ID NO 348]
100	18	1000	4	IVLSLDVPIGLLQILLEQARHAHAHAHAHAQAHILAHV-NH2 [SEQ ID NO 369]
13.6	96.5	783	62.5	DNPSLSIDLPLFLLRTLLELEKTQSQRERAEQNAIIFASV-NH2 [SEQ ID NO 343]
100	46	1000	9	IVLSLDVPIGLLQILLEKAAAEAEAAAKAAQEQILAHV-NH2 [SEQ ID NO 366]
39.7	100	1000	18.8	DNPSLSIDLPLILLRTLLELEKTQSQRERAEQNAIIFASV-NH2 [SEQ ID NO 345]
13.8	100	1000	44.2	ZGPPISIDLPLQLLRKVIEIEKQEKEKQQAANNALLLATI (C-terminal amide) [SEQ ID NO 349]
19	100	1000	16	ZGPPISIDVPLQLLRKVIEIEKQEKEKQQAANNARLLDTI (C-terminal amide) [SEQ ID NO 380]
11.5	100	1000	9	ZGPPISIDVPYWLLRKVIEIEKQEKEKQQAANNARLLARI (C-terminal amide) [SEQ ID NO 373]
11.6	98.1	1000	48	ZGPPISIDLPFQLLRKVIEIEKQEKEKQQAANNALLLDTI (C-terminal amide) [SEQ ID NO 350]
4.39	100	386	100	ZGPPISIDLPFQLLRKIIEIEKQEKEKQQAANNALLLATI (C-terminal amide) [SEQ ID NO 362]

CRF2R EC50 (CRF2R) [nM]	CRF2R Emax % (CRF2R) [%]	CRF1R EC50 (CRF1R) [nM]	CRF1R Emax % (CRF1R) [%]	Binder
8.26	83.7	780	82.6	ZGPPISIDLPFQLLRKVIEIEKQEKEKQQAANNALLLATI (C-terminal amide) [SEQ ID NO 352]
14.2	100	1000	13	ZGPPISIDVPYWLLRKVIEIEKQEKEKQQAANNARLLDTI (C-terminal amide) [SEQ ID NO 372]
6.03	95	18	100	ZGPPISIDLSLELLRKMIEIEKQEKEKQQAANNRLLLDTI (C-terminal amide) [SEQ ID NO 355]
6.44	100	331	100	ZGPPISIDLPFQLLRKLIEIEKQEKEKQQAANNALLLATI (C-terminal amide) [SEQ ID NO 357]
70.5	94	1000	8	ZGPPISIDVPIYLLRKVIEIEKQEKEKQQAANNARLLARI (C-terminal amide) [SEQ ID NO 379]
11.5	100	1000	22	ZGPPISIDVPYQLLRKVIEIEKQEKEKQQAANNARLLARI (C-terminal amide) [SEQ ID NO 375]
14.9	100	1000	36	ZGPPISIDVPYYLLRKVIEIEKQEKEKQQAANNARLLARI (C-terminal amide) [SEQ ID NO 378]
6.12	93	157	100	ZGPPISIDLPFQLLRLLIEIEKQEKEKQQAANNALLLATI (C-terminal amide) [SEQ ID NO 360]
13.2	100	1000	27	ZGPPISIDLPFQLLRKAIEIEKQEKEKQQAANNALLLATI (C-terminal amide) [SEQ ID NO 364]
52.5	100	1000	8	ZGPPISIDVPYHLLRKVIEIEKQEKEKQQAANNARLLDTI (C-terminal amide) [SEQ ID NO 376]
23.1	100	230	100	ZGPPISIDLPFQLLREVIEIEKQEKEKQQAANNALLLATI (C-terminal amide) [SEQ ID NO 359]
19.2	83	1000	25	ZGPPISIDVPYHLLRKVIEIEKQEKEKQQAANNARLLARI (C-terminal amide) [SEQ ID NO 377]
6.37	99	149	100	ZGPPISIDLPFQLLRVLIEIEKQEKEKQQAANNALLLATI (C-terminal amide) [SEQ ID NO 361]
23.4	94	1000	21	ZGPPISIDLPFQLLRKAIEIEKQEKEKQQAANNALLLDTI (C-terminal amide) [SEQ ID NO 365]
15.8	91	1000	11	ZGPPISIDVPYQLLRKVIEIEKQEKEKQQAANNARLLDTI (C-terminal amide) [SEQ ID NO 374]
51	75	1000	33	IVLSLDVSIGLLQILLEQARARAAREQATTNARILARV-NH2 [SEQ ID NO 370]
100	18	1000	6	IVLSLDVPIGLLQILLEQARHAAAHAAAHAQAHILAHV-NH2 [SEQ ID NO 367]
50.4	–	1000	–	IVLSLDVPIGLLQILLEQARARAAREQATTNARILARVM-NH2 [SEQ ID NO 368]
6.62	97	1000	22	IVLSLDVPIHLLQILLEQARARAAREQATTNARILARV-NH2 [SEQ ID NO 371]
